Experimental findings from US7445894B2, “Compositions and methods for detection and isolation of phosphorylated molecules” (priority 2002, dated 2008) are described below.

Data set [1] concerns phosphopeptides. Briefly: Quantitative binding of phosphopeptides using streptavidin ferrofluid particles. The note with it: 550 pmoles phosphopeptides, particles saturated with Compound 9, charged with GaCl3, eluted with 0.15 M ammonium hydroxide. Here is the method: Quantitative binding of phosphopeptides was accomplished using labeled ferrofluid particles. Streptavidin ferrofluid particles were labeled with Compound 9 until saturated. After washing away unbound dye, the particles were charged with 0.1 M GaCl3, then washed with 0.1 M NaOAc, pH 4.0. 100 μL of magnetic particles (4 mg/mL) was added with standard peptide mix containing 550 picomoles of phosphopeptides. The mixture was incubated for 20 min while gently vortexing. The particles were isolated using a magnetic separator and the resulting supernatant was removed. The beads were washed 2× with 100 μL 100 mM NaOAc, pH 4.0 and the phosphopeptides were eluted with 0.15 M ammonium hydroxide. Greater than 95% of the phosphopeptides (550 pmoles) were isolated.

For data set [2], the system named is T1, Abl peptide (New England Biolabs), substrate for Abl tyrosine kinase.
T1 sequence: EAIYAAPFAKKK

Data set [3] concerns T2, Glycogen synthase 1-10 peptide (Calbiochem).
T2 sequence: PLSRTLSVSS

The test system of data set [4] is T3, Kemptide (non-phosphorylated).
T3 sequence: LRRASLG

The subject of data set [5] is T4, crosstide, biotinylated synthetic peptide.
T4 sequence: GRPRTSSFAEG

The subject of data set [6] is Bovine muscle myosin light chain.
Data set [7] deals with pp60 c-src (pY), phosphorylated form of the pp60 c-src peptide. Briefly: peptide microarray on HydroGel slides; primary antibody at 1.5 µg/mL, then Alexa Fluor 647 goat anti-mouse; 632.8 nm excitation / 670 nm emission.
The target is the same in data set [8]. Briefly: peptide microarray on HydroGel slides; primary antibody, then Zenon One Alexa Fluor 647 mouse IgG labeling reagent; 632.8 nm excitation / 670 nm emission.

Chain of Abl Protein Tyrosine Kinase (NEB) (P00520 whole entry): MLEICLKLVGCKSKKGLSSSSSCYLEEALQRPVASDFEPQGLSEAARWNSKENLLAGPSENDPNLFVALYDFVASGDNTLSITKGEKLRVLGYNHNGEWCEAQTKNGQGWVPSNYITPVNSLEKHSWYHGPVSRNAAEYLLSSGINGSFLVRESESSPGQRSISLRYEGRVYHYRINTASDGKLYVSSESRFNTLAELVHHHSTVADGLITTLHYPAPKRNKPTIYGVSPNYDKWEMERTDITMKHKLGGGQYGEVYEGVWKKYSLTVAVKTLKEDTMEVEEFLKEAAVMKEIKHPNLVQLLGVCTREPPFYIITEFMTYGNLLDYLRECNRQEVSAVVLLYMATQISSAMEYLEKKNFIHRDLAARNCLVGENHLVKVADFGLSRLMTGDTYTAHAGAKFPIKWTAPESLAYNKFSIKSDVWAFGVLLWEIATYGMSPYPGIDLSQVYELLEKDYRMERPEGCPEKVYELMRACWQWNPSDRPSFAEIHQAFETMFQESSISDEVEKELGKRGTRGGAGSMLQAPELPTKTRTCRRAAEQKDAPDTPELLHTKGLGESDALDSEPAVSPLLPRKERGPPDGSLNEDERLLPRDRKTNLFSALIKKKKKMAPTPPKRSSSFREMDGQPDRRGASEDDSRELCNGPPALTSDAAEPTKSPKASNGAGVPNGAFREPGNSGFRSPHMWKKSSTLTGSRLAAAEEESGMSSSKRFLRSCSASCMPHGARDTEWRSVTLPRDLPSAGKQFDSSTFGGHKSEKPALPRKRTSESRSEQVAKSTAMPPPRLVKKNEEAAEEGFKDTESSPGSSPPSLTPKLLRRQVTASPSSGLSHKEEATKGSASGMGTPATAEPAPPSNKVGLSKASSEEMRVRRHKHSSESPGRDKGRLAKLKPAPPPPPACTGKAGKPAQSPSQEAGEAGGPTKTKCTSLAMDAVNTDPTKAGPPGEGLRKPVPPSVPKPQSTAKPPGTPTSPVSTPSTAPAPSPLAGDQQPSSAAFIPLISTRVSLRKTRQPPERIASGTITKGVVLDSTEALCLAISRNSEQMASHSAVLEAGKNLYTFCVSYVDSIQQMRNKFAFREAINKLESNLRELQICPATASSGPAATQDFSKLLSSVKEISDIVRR
Chain of Akt/Protein Kinase B (P31749 whole entry): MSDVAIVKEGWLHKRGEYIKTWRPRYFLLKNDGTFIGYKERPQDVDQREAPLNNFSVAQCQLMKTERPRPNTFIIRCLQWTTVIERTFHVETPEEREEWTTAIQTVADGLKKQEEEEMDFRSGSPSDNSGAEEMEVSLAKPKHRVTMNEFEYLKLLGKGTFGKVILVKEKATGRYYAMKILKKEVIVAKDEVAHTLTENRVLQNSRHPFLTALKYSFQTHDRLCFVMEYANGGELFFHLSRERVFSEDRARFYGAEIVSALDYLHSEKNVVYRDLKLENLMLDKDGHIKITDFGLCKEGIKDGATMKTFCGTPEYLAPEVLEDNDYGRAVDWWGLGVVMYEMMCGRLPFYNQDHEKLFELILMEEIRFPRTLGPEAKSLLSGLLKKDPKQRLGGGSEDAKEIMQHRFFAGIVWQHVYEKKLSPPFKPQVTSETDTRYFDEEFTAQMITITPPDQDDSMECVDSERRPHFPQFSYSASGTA

“4-(N-(5″-biotinylaminopentyl)aminocarbonyl)-rhod tetrapotassium salt [Compound 9]”: the phosphopeptides isolated result in data set [1] is reported as “Greater than 95%”.
Regarding Abl Protein Tyrosine Kinase (NEB), in data set [2], the “fluorescent labeling (Compound 2/Ga3+) of arrayed peptide after kinase reaction” value is “Abl peptide substrate is the only fluorescently labeled peptide on the array”; the “fluorescent labeling (Compound 2/Ga3+) of arrayed peptide after kinase reaction with ATP-γ-S or ATP” value was “Abl peptide substrate is the only fluorescently labeled peptide on the array”; the “sensitivity of detection after kinase reaction” value is recorded as “Sensitivity of detection after kinase reaction is at least 0.18 ng or 0.14 pmol”; the “sensitivity of detection after kinase reaction with ATP (control)” value is 0.325 pg of Abl peptide, in the control reaction using ATP, was labeled and detected. Besides, the “sensitivity of detection after kinase reaction with ATP-γ-S” value in data set [2] is recorded as “Sensitivity of detection after kinase reaction was 2.6 pg of the peptide labeled using ATP-γ-S”. In addition, the “fluorescent labeling (Compound 2/Ga3+) of arrayed peptide after kinase reaction; Glycogen Synthase 1-10 not labeled” value in data set [3] was “Abl peptide substrate is the only fluorescently labeled peptide on the array”. For the same substance, the “fluorescent labeling (Compound 2/Ga3+) of arrayed peptide after kinase reaction; Kemptide not labeled” value in data set [4] was “Abl peptide substrate is the only fluorescently labeled peptide on the array”.
Consider Akt/Protein Kinase B, for which, in data set [5], the “fluorescent signal (Compound 2/Ga3+) of peptide charged beads, exposed to kinase against not exposed” value is “The fluorescent signal of the peptide charged beads exposed to Akt/PKB kinase was found to be 2.2-fold higher, with no overlap in standard deviation, than the control peptide charged beads not exposed to enzyme”.
For the substance “Calcium-Calmodulin-Dependent protein Kinase II (New England BioLabs)”, the “fluorescent labeling (Compound 2/Ga3+) of arrayed peptide after kinase reaction; Abl peptide not labeled” value in data set [2] was “glycogen synthase peptide is the only fluorescently labeled peptide on the array”. For the same substance, in data set [3], the “fluorescent labeling (Compound 2/Ga3+) of arrayed peptide after kinase reaction” value is listed as “glycogen synthase peptide is the only fluorescently labeled peptide on the array” and the “sensitivity of detection after kinase reaction” value is “Sensitivity of detection after kinase reaction is at least 0.375 ng or 0.35 pmol”. In data set [6], the “phosphoprotein stain signal (Compound 2/Ga3+) of the gel band, kinase reaction against no-enzyme control” value is recorded as “the signal from the band in the lane corresponding to the reaction containing the enzyme 3.4-fold greater than the no-enzyme control”.
For “phosphotyrosine monoclonal antibody P-Tyr-100 (Cell Signaling Tech.)”, the results for the sensitivity of detection in data set [7] and in data set [8] were 5.2 pg and 0.65 pg, respectively.
